Reference: patent US20180187179
Positions count from the first letter of the chain named. Names and notes keep the numbering of the source.

T1: β-casein, P02666
T1 chain: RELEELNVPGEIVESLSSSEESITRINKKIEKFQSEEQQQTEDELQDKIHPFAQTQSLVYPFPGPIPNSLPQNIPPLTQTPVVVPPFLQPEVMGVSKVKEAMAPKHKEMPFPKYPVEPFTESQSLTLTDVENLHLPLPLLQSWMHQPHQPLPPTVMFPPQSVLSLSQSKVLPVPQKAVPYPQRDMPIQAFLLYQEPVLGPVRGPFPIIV

B1: camel chymosin variant 283 (F282E+N100Q+N291Q) (protein)
chain: GKVAREPLTSYLDSQYFGKIYIGTPPQEFTVVFDTGSSDLWVPSIYCKSNVCKNHHRFDPRKSSTFRNLGKPLSIHYGTGSMEGFLGYDTVTVSNIVDPQQTVGLSTEQPGEVFTYSEFDGILGLAYPSLASEYSVPVFDNMMDRHLVARDLFSVYMDRNGQGSMLTLGAIDPSYYTGSLHWVPVTLQQYWQFTVDSVTINGVAVACVGGCQAILDTGTSVLFGPSSDILKIQMAIGATENRYGEFDVNCGNLRSMPTVVFEINGRDYPLSPSAYTSKDQGECTSGFQGDQNSELWILGDVFIREYYSVFDRANNRVGLAKAI
B2: camel chymosin variant 285 (R254S+N100Q+N291Q) (protein)
chain: B1 chain with R254S, E282F
B3: camel chymosin variant 286 (R242E+N100Q+N291Q) (protein)
chain: B1 chain with R242E, E282F

Target: T1, β-casein, P02666
Settings: scale: % cleavage of non-glycosylated camel chymosin

| Protein | β(193-209): cleavage of β-casein at position 192/193 |
| --- | --- |
| B1 | 79 |
| B2 | 78 |
| B3 | 89 |
